US20230141177A1 (UNIVERSITY OF BRITISH COLUMBIA, published 2023)
Residue numbers refer to the chain shown, from its start. In names and notes the source's numbering stands. Blank lines part the entries; values can stand above or below the binder they belong to.

Legend:
[1] = biological target: T1, linear (CGHHQKG) (SEQ ID NO: 2) peptide-BSA (linear (non-cyclized) peptide; conjugated to BSA); test: SPR multi-cycle kinetics, purified IgG4 vs linear peptide-BSA
T1 construct: also called linear peptide-BSA; linear-BSA peptide

[2] = biological target: T2, commercial A-beta oligomer (purchased from SynAging) (human); test: SPR (MASS-1), antibody immobilized, commercial oligomer injected
T2 construct: also called commercial oligomer
Method: (§1) All surface plasmon resonance (SPR) measurements were performed using a Molecular Affinity Screening System (MASS-1) (Sierra Sensors GmbH, Hamburg, Germany), an analytical biosensor that employs high intensity laser light and high speed optical scanning to monitor binding interactions in real time. In SPR direct binding assays, antibodies are covalently immobilized on individual flow cells of a High Amine Capacity (HAC) sensorchip (Sierra Sensors GmbH, Hamburg, Germany) and ligands flowed over the surface (BSA-conjugated peptides, A-beta42 Monomer and A-beta42 Oligomer). Each sample was diluted and injected in duplicate over the immobilized peptide and BSA reference surfaces, followed by injection of running buffer only for the dissociation phase. After every analytical cycle, the sensor chip surfaces were regenerated. Sensorgrams were double-referenced by subtracting out binding from the BSA reference surfaces and blank running buffer injections, and binding response report points collected in the dissociation phase.

[3] = biological target: T3, A-beta42 Oligomer (oligomer prep, made in F12 medium) (human); test: SPR (MASS-1), antibody immobilized, A-beta42 oligomer injected
T3 construct: also called synthetic AβO
Method: as §1

[4] = biological target: T4, cyclo (CGHHQKG) (SEQ ID NO: 2)-BSA (cyclized peptide, cyclo(CGHHQKG); conjugated to BSA); test: SPR multi-cycle kinetics, purified IgG4 vs cyclic peptide-BSA
T4 construct: also called cyclic peptide-BSA; cyclo-BSA peptide

[5] = biological target: T4, cyclo (CGHHQKG) (SEQ ID NO: 2)-BSA; test: SPR single cycle kinetics; IgG4 in cell supernatant captured on Protein A chip; peptide-BSA injected at four rising concentrations, 0.025 to 0.675 nM [Cont.]
Method: (§2) A four-point, three-fold dilution range from 0.025 nM to 0.675 nM peptide-BSA without regeneration between each concentration was used.

[6] = biological target: T1, linear (CGHHQKG) (SEQ ID NO: 2) …; test: as above
Method: as §2

T1 sequence (P02769 25-607 limits assumed): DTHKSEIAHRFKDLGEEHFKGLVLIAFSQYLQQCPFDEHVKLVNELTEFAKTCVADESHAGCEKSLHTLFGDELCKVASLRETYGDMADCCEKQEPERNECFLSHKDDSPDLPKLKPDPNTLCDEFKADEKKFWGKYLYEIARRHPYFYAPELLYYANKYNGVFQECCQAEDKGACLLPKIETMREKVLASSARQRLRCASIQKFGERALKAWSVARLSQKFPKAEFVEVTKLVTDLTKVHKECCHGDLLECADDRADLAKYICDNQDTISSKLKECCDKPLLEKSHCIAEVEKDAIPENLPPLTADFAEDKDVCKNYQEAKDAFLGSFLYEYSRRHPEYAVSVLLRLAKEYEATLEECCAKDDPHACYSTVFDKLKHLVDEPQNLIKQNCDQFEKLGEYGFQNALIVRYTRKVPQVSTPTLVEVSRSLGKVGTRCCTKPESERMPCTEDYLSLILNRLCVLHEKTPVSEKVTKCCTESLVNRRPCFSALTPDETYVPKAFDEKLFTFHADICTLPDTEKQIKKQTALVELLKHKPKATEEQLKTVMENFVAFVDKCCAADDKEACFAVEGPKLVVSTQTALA
T4 sequence (P02769 25-607 limits assumed): as above
T3 sequence (peptide, as listed by the source): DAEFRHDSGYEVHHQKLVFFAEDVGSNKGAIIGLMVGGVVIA
T2 sequence (peptide, as listed by the source): as above

B1: parental antibody, PMN310 humanized antibody variant VH2/Vk5 (human IgG4 S241P / kappa) (antibody, V domains shown)
VH: QVQLVQSGAEVKKPGASVKMSCKASGYSFTSYWINWVKQRPGQGLEWIGDVHPGRGVSTYNAKFKSRATLTLDTSISTAYMELSSLRSEDTAVYYCSRSHGNTYWFFDVWGQGTTVTVSS
VL: DVLMTQSPLSLPVTLGQPASISCRSSQSIVHSNGNTYLEWYQQRPGQSPRLLIYKVSNRFSGVPDRFSGSGSGTDFTLKISRVEAEDVGVYYCFQGSHVPFTFGQGTKLEIKR
notes: also called parental huPMN310; huPMN310
Kd [1]: 103 pM
koff [1]: 0.000155 s⁻¹
kon [1]: 1.5e+06 M⁻¹ s⁻¹
Binding to commercial oligomer (BRU) [2]: 3 BRU
Binding to oligomer prep (BRU) [3]: 85.6 BRU
Kd [4]: 27.4 pM
koff [4]: 0.000155 s⁻¹
kon [4]: 5.65e+06 M⁻¹ s⁻¹

B3: Clone 5 (affinity matured VH with parental Vk, human IgG4 S241P / kappa) (antibody, V domains shown)
VH: B1 VH with S97A, S99G, H100A, G101L, N102S, T103P
VL: B1 VL
Kd [1]: 92.4 pM
koff [1]: 0.000138 s⁻¹
kon [1]: 1.49e+06 M⁻¹ s⁻¹
Binding to commercial oligomer (BRU) [2]: 32.3 BRU
Binding to oligomer prep (BRU) [3]: 223 BRU
Kd [4]: 64.7 pM
koff [4]: 0.000132 s⁻¹
kon [4]: 2.04e+06 M⁻¹ s⁻¹

B4: Clone 13 (antibody, human IgG4 S228P, kappa, V domains shown)
VH: B1 VH with S97A, H100V, N102D, F107Y
VL: B1 VL
binding result [5]: no binding
binding result [6]: no binding

Second part, the binder after the results:

Binding to commercial oligomer (BRU) [2]: 22.6 BRU
Binding to oligomer prep (BRU) [3]: 57.3 BRU
Kd [4]: 23.5 pM
koff [4]: 6.9e-05 s⁻¹
kon [4]: 2.94e+06 M⁻¹ s⁻¹
B2: Clone 4 (affinity matured VH with parental Vk, human IgG4 S241P / kappa) (antibody, V domains shown)
VH: B1 VH with S97A, S99V, H100S, G101P, N102T, T103G
VL: B1 VL

Binding to commercial oligomer (BRU) [2]: 22.3 BRU
Binding to oligomer prep (BRU) [3]: 30.8 BRU
Kd [4]: 28.9 pM
koff [4]: 0.000152 s⁻¹
kon [4]: 5.26e+06 M⁻¹ s⁻¹
B5: Clone 14 (affinity matured VH with parental Vk, human IgG4 S241P / kappa) (antibody, V domains shown)
VH: B1 VH with S97A, R98K, H100D, G101A, N102S, T103G
VL: B1 VL
